This note sets out measurements from paper doi:10.1101/2021.09.20.461090.

The assay has as its target extended E34 TSP (E34 phage tailspike protein with the N-terminal 43 amino acid fusion peptide) (E34 phage). Kind of assay: SDS-PAGE of unheated against unfolded samples.

On to “extended E34 TSP (E34 phage tailspike protein with the N-terminal 43 amino acid fusion peptide) (natural protein)”, for which the stoichiometry N was 3.

The stoichiometry N is the number of molecules, sites or subunits per partner or assembly.
